Laboratory results reported in publication PMC11272584 (Nature Metabolism, 2024).
Numbering of substitutions follows the chain as printed.

Assays:
GIPR A150T (human) = target: T1, GIPR A150T (human) (UniProt P48546)
T1 sequence: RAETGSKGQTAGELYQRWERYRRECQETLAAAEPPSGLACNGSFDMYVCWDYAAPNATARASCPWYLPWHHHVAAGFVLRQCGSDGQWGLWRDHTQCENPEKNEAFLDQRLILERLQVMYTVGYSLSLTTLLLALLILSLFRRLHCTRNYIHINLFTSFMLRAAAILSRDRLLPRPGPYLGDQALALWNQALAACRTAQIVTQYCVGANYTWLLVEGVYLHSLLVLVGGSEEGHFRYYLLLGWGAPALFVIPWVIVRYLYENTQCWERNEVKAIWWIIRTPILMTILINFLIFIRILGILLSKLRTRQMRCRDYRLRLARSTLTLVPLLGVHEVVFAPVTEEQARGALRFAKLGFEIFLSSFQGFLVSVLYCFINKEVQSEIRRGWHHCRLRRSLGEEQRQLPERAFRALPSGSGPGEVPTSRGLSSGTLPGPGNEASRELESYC

GIPR E354Q (human) = target: T2, GIPR E354Q (human) (UniProt P48546)
T2 sequence: T1 sequence with T129A, E333Q

GIPR P195R (human) = target: T3, GIPR P195R (human) (UniProt P48546)
T3 sequence: T1 sequence with T129A, P174R

GIPR R12Q (human) = GIPR R12Q (human) (UniProt P48546)
GIPR R164Q (human) = target: T4, GIPR R164Q (human) (UniProt P48546)
T4 sequence: T1 sequence with T129A, R143Q

GIPR S382T (human) = target: T5, GIPR S382T (human) (UniProt P48546)
T5 sequence: T1 sequence with T129A, S361T

GIPR W90Lfs* (human) = target: T6, GIPR W90Lfs* (human) (UniProt P48546)
T6 sequence (P48546 whole entry, looked up): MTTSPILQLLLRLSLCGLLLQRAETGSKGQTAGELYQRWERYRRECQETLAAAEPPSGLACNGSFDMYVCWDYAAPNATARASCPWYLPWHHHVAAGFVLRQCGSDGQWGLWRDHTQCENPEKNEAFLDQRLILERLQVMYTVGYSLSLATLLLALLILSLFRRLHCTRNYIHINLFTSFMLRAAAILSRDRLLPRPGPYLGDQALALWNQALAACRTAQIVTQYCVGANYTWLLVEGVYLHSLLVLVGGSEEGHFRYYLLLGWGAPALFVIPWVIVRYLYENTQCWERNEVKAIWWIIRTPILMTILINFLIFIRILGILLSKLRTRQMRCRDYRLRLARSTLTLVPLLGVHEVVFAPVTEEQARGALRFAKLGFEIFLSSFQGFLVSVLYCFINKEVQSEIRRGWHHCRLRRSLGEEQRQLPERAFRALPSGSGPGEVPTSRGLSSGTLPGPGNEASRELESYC

Substance: β-arrestin 2 (Rluc8-Arrestin-3-Sp1) (from UniProt P32121 1-409) (natural protein)
- β-arrestin 2 recruitment (BRET) on stimulation with GIP(1-42): logEC50 (Arrestin) (log M (inferred)) (GIPR A150T (human)): -8.92
- β-arrestin 2 recruitment (BRET) on stimulation with GIP(1-42): logEC50 (Arrestin) (log M (inferred)) (GIPR E354Q (human)): -8.52
- β-arrestin 2 recruitment (BRET) on stimulation with GIP(1-42): logEC50 (Arrestin) (log M (inferred)) (GIPR P195R (human)): -9.04
- β-arrestin 2 recruitment (BRET) on stimulation with GIP(1-42): logEC50 (Arrestin) (log M (inferred)) (GIPR R12Q (human)): -8.72
- β-arrestin 2 recruitment (BRET) on stimulation with GIP(1-42): logEC50 (Arrestin) (log M (inferred)) (GIPR R164Q (human)): -8.92
- β-arrestin 2 recruitment (BRET) on stimulation with GIP(1-42): logEC50 (Arrestin) (log M (inferred)) (GIPR S382T (human)): -9.39
- β-arrestin 2 recruitment (BRET) on stimulation with GIP(1-42): logEC50 (Arrestin) (log M (inferred)) (GIPR W90Lfs* (human)): -10.8
